Source: the DeepSol protein solubility set

Assay: soluble on expression in E. coli; label from the status in PepcDB or PDB records

Soluble on expression in E. coli, not soluble:
MGSDKIHHHHHHMIKRLKIKNFKSYRDSEFEFEKVSIVVGPNGSGKTNLVDAFSFLKQLIRPLSYPPYPFIRWGDYKNVVFMQDENLDISFEIDGEYKGKDYHYEISLNKLQIKKEIINFDSYSMERRGNVIRYENKEMTIPDNLSVFNLFFAQPFIIAYNLNFTLPPELLNFMTNFLNDVGVFRIVPQIAVSPVHFTFPEALDENGRGLVKVISNNLSRINETKQVYDFLVENNISLRPVFTEDGNIRLHFIEKSENNKELILLPASVPDGFIKMLTIIIAVYLLKMSTIIIDEIENSLHLKYIERLVDIMRYSDSQFIATTHSPLIIDFMDPFRNNNS
MGSDKIHHHHHHMIKSFWLENFGPISLLKADNLGKINLIIAENSKGKTFILKALYSVLKSHEEAHKGKNIRDFSEELRDKLYWTFQVEEIGDLVTRGKENPNERPLKLSMTLEDSSSVLFSFGRTTKKLIKPELYELSPRINANSIFLPPKEVLSLFDVIKKSEEEKRFGFDATYIDLVKALDIKPTKGRNYPEAAEARKDLEALFGGYVSYNDKKKAWVYEKDRQTFSINSTAEGVKKIGILDTLLGNRFLSPGSILFIDEPEANLHPKAINQFLEILFSLSKSKLGIQIFMSTHSYFVIKKLCLLARKHSESIPVFMPGKEKEQTTWVQENLQNSMPDNEIIGESIRLFREEIGVLSPETAWIG
MGSDKIHHHHHHMIKSVLVIRNDKIGDFVLTWPALYELKMALPNASIEVFVDPVLKDFAMACPYIDHVIVDDGDDQAITKAFAERHYDAVIVSRSQIRTYRLLRKLDIPYKLAPKLNWYQYLYQHRTSIEVPKGLGGWRKSCMMVERFLADHRIPVPTLPTRYWDLSHERRKWQDHYGQQGEERLIFAHPGTGGSSGGISPSDFAGLLAQVDKLTAIECKFVLTYSGQEIALAQQIYDLLSAQGIKVVMAEPLASLADFAKSLVAADMFMAGSTGPLHIAGLHNVPTVGFYAGRRSAPKVRWQTLTQSERRLAFTPPVGKKTGRNMALIDFDLAAKEIAAFLDTQYASQSAVS
MGSDKIHHHHHHMIKVNRYEIFLDFSFQTGDYKGYEKIEMESDEETVVLDAVGLKIVKAKVNGKEIEFSQDESRVNVKSGSFSGILEVEFEGKVTERKLVGIYKASYKDGYVISTQFEATHARDFIPCFDHPAMKARFKLTVRVDKGLKVISNMPVVREKEENGKVVYEFDETPKMSTYLLYLGIGNFEEIRDEGKIPTIIVATIPGKVQKGRFSMQISRNSIEFYEKYFEIPYQLPKVHLIAIPEFAYGAMENWGAITFRETALLADDSSSVYQKFRVAEVVAHELAHQWFGNLVTLKWWDDLWLNESFATFMSHKAISQLFPSWNFWDYFVLNQTSRALEKDSVSTTHPIEAHVRDPNEVEQMFDDISYGKGASILRMIEAYVGEENFRRGVVNYLKKFSYSNAQGSDLWNSISEVYGSDISPIMADWITKPGYPMVRVSVSGKRVSLEQERFSLIGNVENLLYKIPLTMEVNGKVVTHLLDKERDTMVFEEDVKSLKVNVNRTGFYRVFYYNNSDLVFNSNLSELDKWGIINDYWAFLLAGKIGFKEYERVISKFFNDKDFLPVNELSNELFTLHAINPDKYQGIAKEFHRIQLKNWRNSKDELGRLTYSNILYRLAAIDDEFSLGLSELFRFYGSLDSDTRQGVAVAYAITYEDNSVDELLERFRKETFDEEKLRYLTAMLFFRKPYLVGNTLSLILSGEIKKQDIPLTLSTAAYNPYAKSAVLNWIKMHINFMREAYKGTGILGRRLAEVIPLIGIGAERETEQFFSNLNMPEAERGIGTGLELLKAYSRLK
MGSDKIHHHHHHMILKRISILNYKNLEQVEIGFSAKLNCFFGQNGMGKTNLLDAVYFLSFCKSSGNPIDSQNIRHEQDFFVIQGFYEAEDGTPEEIYCGMKRRSKKQFKRNKKEYSRFSDHIGFLPLVMVSPADSELIAGGSDERRRFMDVVISQYDKEYLEALIRYNKALAQRNTLLKSEFPVEEELFLVWEEMMAQAGEIVFRKREAFIEEFIPIFQSFYSFISQDKEQVGLSYDSHARDASLLEVLKQSRERDKIMGFSLRGIHKDELNMLLGDFPIKKEGSQGQNKTYLVALKLAQFDFLKRTGQTVPLLLLDDIFDKLDASRVEQIVKLVAGDNFGQIFITDTNREHLDRILQKVGSDYKVFRVDQGVINEMGAEQ
MGSDKIHHHHHHMIMIRQLTPADFDAVITLGEIVHGSGYMDIAELTAIYHKGIKNGINANFVALENEQLIGFRLTYAAGQWPQDQWCTVDKWGVKFEDVCYFKSNTIAESGRGQGLGGKLLAASKAAVIAQGAKAGVSHLWQQSPNNAAVRYFTKAGGKLIKQHPQRWHQRYMGDDYICVLCGEDCHCVACEMLLLF
MGSDKIHHHHHHMINKELTAATFMEVIAEDNRFIYDGIDSNFEPELVFLEFFEALLSFAFICVTDQMTKSYTNVPADDVSGNKHETIYTILNQDAQNKSPSAVMSHESDAAHSDSARSSSSKLELSPDVNKIRKSEPKIKKSVSHERVSKMNFKLTGKGITFFSSESKKYERPKDDREEEFNTWVNNTYVFFVNTLFHAYKREEAIKEKIRADRLRSTAQAQQRKMEDDELEARLNIFILREEEAKRHDYEVDITVLKEPADVSSSHLILDPPKEDVTVSPSSKTITSKKKKK
MGSDKIHHHHHHMINQVYQLVAPRQFEVTYNNVDIYSDYVIVRPLYMSICAADQRYYTGSRDENVLSQKLPMSLIHEGVGEVVFDSKGVFNKGTKVVMVPNTPTEKDDVIAENYLKSSYFRSSGHDGFMQDFVLLNHDRAVPLPDDIDLSIISYTELVTVSLHAIRRFEKKSISNKNTFGIWGDGNLGYITAILLRKLYPESKIYVFGKTDYKLSHFSFVDDVFFINKIPEGLTFDHAFECVGGRGSQSAINQMIDYISPEGSIALLGVSEFPVEVNTRLVLEKGLTLIGSSRSGSKDFQDVVDLYIQYPDIVDKLALLKGQEYEIATINDLTEAFEADLSTSWGKTVLKWIM
MGSDKIHHHHHHMIQLHVYEEIVNFKEEVTPFLEKNEQENNLILGVLQMVHQPIFMGIAKQGEEIAVVFLQTEEKKQIIVATSEISGVAIKELAKELTKIYPDIPGLIGDKKVVQHLAEEIAVLENKKTNVVMEQGVYELKEVKKKPSEDGFFREVSSDELTLIEEWIYQFCEDVNLPTTKEEAKQTAHTLITNHRLFGLEVDGKLVSVAAKTRPTKNNITVNFVYTPKEARKKGYASNCVAALSQRMLDEGYKTTTLYTDLANPTSNKIYQEIGYEQIAESVLIFLEK
MGSDKIHHHHHHMIRMIRKFKVKGLRSPSLLIDMILNDTEEGILVVETDGEEQIKDIEKLLKKYNLKYEVDGNVVKIYVGEIKADKTINVVGATCPGPIMMVSDMLSKMKNGEILEIICGKNSLTDLTEGLKGMGNEIIKVEDKGDGTYRILVKKGEKKEEKAAVTKIDELFIINTTGTGNAEKAYATFMMADVALKMNLKPTIFLMMDGASLALKGECDRVKHPAFPKLGDLVRDILSKGVKIYVCELSAEFRGINEKNLEEGFEIAGAPTFLNYLSKPNVRPVWL
MGSDKIHHHHHHMIRVLSVFGTRPEAIKMAPLVKKLEEEQNVESLVCVTAQHRQMLDQVLEVFDIKPDFDLNIMKERQNLSDITVNALSGLYDLIGELKPDIVLVQGDTTTTFAGALAAFYHRIPVGHVEAGLRTNDRYSPFPEEINRRLTGVLSTLHFAPTKRNRENLLKENVMGKIYVTGNTVIDALRYTVKENHVFEDPILRNMDFSDGRYILLTSHRRENIGKPLENICRAVRRIVEGFEDVKVIYPVHMNPAVREIVFPMLENVERVFLIDPVNVIDMHNLMARSYLIMTDSGGIQEEAPALGKPVIVLRKETERPEAIEAGVAVLGGVEEERIFELAKKLLVDREEYEKMAKAVNPFGDGRASERIVKAILHEFGLSDPPEEFC
MGSDKIHHHHHHMISERMERQLDFIVAIDALKDITRQSITTGSRRQENDAEHSWHLAVMAMILSEYAEDQTIDIAKVISMVLIHDLVEIYAGDTYCYDEKGYEDKAEREQEAADRLFNMLPEDQAQRMMSLWQEFEEMETKEAAFAATLDRFQPLLLNYNTEGHTWQRPGITSEKVLKRTEIAKEKVPQLYVYIERLIQRSIERGMLKP
MGSDKIHHHHHHMITGFASSLYKKYEGSTFELLADTVFSALEMAGLDKNYVDGIYLTYLPGTFDGYANSHFFTNQVAQYLGIRPKFTQIFDYGGASALSMIHRAYKAIKAGEGETILCIVGGKATELRNKGVTVDAIDKAYPNVSLTPFDRLFRGLNDLNPVSDYALVANRHKYLFKSTDEQRALIAVRQRFNAMQNSKAMFKDPLTIEQVLKSPLVSYPLHLLEIVYPIDGFHVFVVSKRSSKSALTNIDILGYGEAHWPFMPTELDEIVYTPAVESSKGLLNGRIDAFELYDSFTITVMLQVEDIGLAEKGKGGSFFENHDTTFKGDVPINTGGGSLNTGQPAYMSGGVILEEALLQLNDMADGHQVKGTDVVFLNGIGGWNRSHSVSLVLGEKK
MGSDKIHHHHHHMITPQDRLIKALNGQVIDRSPCICPGGMMNMATTEIMQRVGSHWPEAHKKPQDMARLALGVCHLTGMENLGVPFCMTVEAEAMGAKVNLGSLANEPRVAEYPLMKLEDWETLSGINPGEGRAGIVAEAVSYLTSSKTELPVIANLTGPISLASSLIEPMVFFKAMGKKPELVHEFLYFVTDNLIVFGRSMLQAGAQIINIADPGGTEEILGPRHFAEFALPYINRILNELQGEYQASMVHICGRLQSIFTEINQLATNAISIDSTTSISKLRSALREKVVVGNISTYLLQNAQPGRVKATGFNCLRKGITILSPACGISPATPLANLQAMVSAVHDFDYQNREVSSLG
MGSDKIHHHHHHMITQINIENFKCFSKKNMPVGALTMLTGFNAAGKSTALQALLLISQMVSGRHGDVSAALNGELVRMGTPGDVLRSDGSKEIKIGIETVEQKIQWTLVPSINLNNSLDLKDIHWASPNGVGDLTNISCNTSFNGLTPNEAPSDLSNLANEISDLIFISAVRMGTQDVYPSPTEPSPIRANVGMRGDYAPWWYEQHLDYEIDQKRVHSSEKALTLRRQLNAWLDQLFPGAEANAQKLPNTDLIQLLFRNSKTDVWRKPANIGYGLTYAFPILVAGLLARPGQLLIIDSPEAHLHPLGQSNMGKFLAKIAASGVQVLVETHSDHVLNGARLAVKSRVIDSRDVGILFFNRPPQKDGDPEHIIAPSIDKEGNLSDWPLGFFDQAENDLAVLADWG
MGSDKIHHHHHHMIVKAKFVKGFIRDVHPYGCRREVLNQIDYCKKAIGFRGPKKVLIVGASSGFGLATRISVAFGGPEAHTIGVSYETGATDRRIGTAGWYNNIFFKEFAKKKGLVAKNFIEDAFSNETKDKVIKYIKDEFGKIDLFVYSLAAPRRKDYKTGNVYTSRIKTILGDFEGPTIDVERDEITLKKVSSASIEEIEETRKVMGGEDWQEWCEELLYEDCFSDKATTIAYSYIGSPRTYKIYREGTIGIAKKDLEDKAKLINEKLNRVIGGRAFVSVNKALVTKASAYIPTFPLYAAILYKVMKEKNIHENCIMQIERMFSEKIYSNEKIQFDDKGRLRMDDLELRKDVQDEVDRIWSNITPENFKELSDYKGYKKEFMNLNGFDLDGVDYSKDLDIELLRKLEP
MGSDKIHHHHHHMIVKDYRREFEALAKAYEKAGGDVSKFLDRRIASIIISGDKVIGLNGVEGVELTPYRIENGVQVDMRIKEGVVVEYPVHVCTGYLEKKGLQRVVFNIRLEKNAKAIFVAHCVFPWTEDFTHDALMNVELEEGAWMEYHDEHTHSETGSINLITRSIARVGERAVYRNTFTLVKTRIGTLRVFMDASLEKDAVGELYTKVKAVEDDDVEVKEILRLNGMGARGLAKTNAVAIDRAKVSVVNEVYGNAPHTRGHVECLEIAKGDGVDVRALPVLVVKNDSSELTHEASIGRVNAKQLETLMAKGLTEEEATEMIIKGILT
